Assay results from patent publication US20250382726A1.

Assays:
[1] = target: recombinant HER2 (Acro Biosystems; P/N. H5225) (UniProt P04626); assay: BLI (Octet), IgG captured on anti-human Fc biosensors, HER2 5-0.078 nM in solution, 37 C, 1:1 global fit, mean of duplicates
[2] = target: recombinant Cathepsin S protein (UniProt P25774); assay: BLI (Octet), captured IgG, Cathepsin S 200 ng/ml, 25 C; Run 1; Affinity to be determined
[3] = target: recombinant Cathepsin S protein (UniProt P25774); assay: BLI (Octet), captured IgG, Cathepsin S 200 ng/ml, 25 C; Run 1, Fsn0503h control
[4] = target: recombinant Cathepsin S protein (UniProt P25774); assay: BLI (Octet), captured IgG, Cathepsin S 200 ng/ml, 25 C; Run 2, second Fsn0503h control row
[5] = target: recombinant Cathepsin S protein (UniProt P25774); assay: BLI (Octet), IgG captured on anti-human biosensors, 200 ng/ml recombinant Cathepsin S, 25 C
[6] = target: recombinant Cathepsin S protein (UniProt P25774); assay: BLI (Octet), captured IgG, Cathepsin S 200 ng/ml, 25 C; Run 1, first Fsn0503h control row
[7] = target: recombinant Cathepsin S protein (UniProt P25774); assay: BLI (Octet), captured IgG, Cathepsin S 200 ng/ml, 25 C; Run 2, Fsn0503h control

Molecule: Wild-Type (antibody having sequence of trastuzumab, transiently expressed in parallel with the variants)
- Kd [1]: 0.126 nM

Molecule: WT (antibody)
- Kd [2]: < 0.001 nM
- koff [2]: < 1e-07 s⁻¹
- kon [2]: 45100 M⁻¹ s⁻¹

B1: Fsn0503h, humanised anti-Cathepsin S antibody (Fusion Antibodies) (antibody, V domains shown)
VH: EVQLVESGGGLVKPGGSLRLSCAASGFAFSSYDMSWVRQAPGKGLEWVAYITTGGVNTYYPDTVKGRFTISRDNAKNTLYLQMSSLKSEDTAVYYCARHSYFDYWGQGTTVTVSS
VL: DVVMTQSPLSLPVTLGQPASISCRSSQSLVHSNGNTYLHWYLQKPGQSPQLLIYKVSNRFSGVPDRFSGSGSGTDFTLKISRVEAEDVGVYYCSQTTHVPPTFGQGTKLEIK
- Kd [3]: 5.47 nM
- koff [3]: 0.000144 s⁻¹
- kon [3]: 26200 M⁻¹ s⁻¹
- Kd [4]: 5.11 nM
- koff [4]: 0.000242 s⁻¹
- Kd [5]: 4.45 nM
- Kd [6]: 3.05 nM
- koff [6]: 0.000121 s⁻¹
- kon [6]: 39600 M⁻¹ s⁻¹
- Kd [7]: 4.39 nM
- koff [7]: 0.000188 s⁻¹
- kon [7]: 42800 M⁻¹ s⁻¹
